Experimental data from patent US20160354479A1 (ESBATECH AN ALCON BIOMEDICAL RESEARCH UNIT, published 2016).
Each block holds one binder with its values, some of them ahead of it.

Key:
[1] = biological target: T1, recombinant human VEGF165 (human, UniProt P15692-4 27-191); assay: SPR, BIAcore T100, hVEGF165 immobilized, 1:1 fit (FIG. 7A)
T1 construct: Amine-coupled to a CM4 sensor chip; also called hVEGF165
Text: (§1) For binding affinity measurements, surface Plasmon resonance measurements with BIAcore™-T100 were employed. In these experiments, purified Escherichia coli-expressed recombinant human VEGF₁₆₅ (PeproTech EC Ltd) was used. Carboxymethylated dextran biosensor chips (CM4, GE Healthcare) were activated with N-ethyl-N′-(3-dimethylaminopropyl)carbodiimide hydrochloride and N-hydroxysuccinimide according to the supplier's instructions. Human VEGF₁₆₅ was coupled to 1 of the 4 different flow cells on a CM4 sensor chip using a standard amine-coupling procedure. The range of responses obtained with the immobilized hVEGF₁₆₅ molecule after coupling and blocking was approximately 120-140 response units (RU). The 4th flow cell of each chip was treated similarly except no proteins were immobilized prior to blocking, and the flow cell was used as in-line reference. Various concentrations of anti-VEGF scFvs (20 nM, 10 nM, 5 nM, 2.5 nM, 1.25 nM, 0.63 nM, 0.31 nM and 0.16 nM) in HBS-EP buffer (0.01 M HEPES, pH 7.4, 0.15 M NaCl, 3 mM EDTA, 0.005% surfactant P20) were injected into the flow cells at a flow rate of 30 μl/min for 5 min. Dissociation of the anti-VEGF scFv from the VEGF on the CM4 chip was allowed to proceed for 10 min at 25° C. Sensorgrams were generated for each anti-VEGF scFv sample after in-line reference cell correction followed by buffer sample subtraction. The apparent dissociation rate constant (kd), the apparent association rate constant (kₐ) and the apparent dissociation equilibrium constant (KD) were calculated using one-to-one Langmuir binding model with BlAcore T100 evaluation Software version 1.1.

Human TNF alpha = biological target: T2, Human TNF alpha (human, UniProt P01375 77-233); assay: direct ELISA on coated human TNF alpha, detection with biotinylated rabbit anti-ESBA105 antibody and streptavidin poly-HRP, OD 450 nm
T2 construct: Coated on the ELISA plate
T2 sequence (P01375 77-233 limits assumed): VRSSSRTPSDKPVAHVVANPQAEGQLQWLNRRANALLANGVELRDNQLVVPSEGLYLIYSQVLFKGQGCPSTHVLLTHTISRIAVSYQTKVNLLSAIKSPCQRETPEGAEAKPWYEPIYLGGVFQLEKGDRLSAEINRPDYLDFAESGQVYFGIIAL
Description: Binding of ESBA105 and its derivatives was assessed by a direct ELISA. Human TNF alpha (PeproTech EC Ltd) was coated on a 96-well microtitre plate and then blocked using BSA (bovine serum albumin). ESBA105 and ESBA105 derivates were tested at concentrations of 50 nM, 12.5 nM, 3.13 nM, 1.56 nM, 0.78 nM, 0.39 nM, 0.20 nM, 0.10 nM and 0.05 nM. Binding of ESBA105 and its derivatives to human TNF alpha was visualized by the subsequent addition of a biotinylated rabbit polyclonal anti-ESBA105 antibody (AK3A, generated at ESBATech), streptavidin Poly HRP and a chromogenic substrate (POD). The product of this reaction was detected by measurement of the optical densitiy (OD) at […] using a spectrophotometer. Data were analyzed using a 4-parameter logistic curve fit, and EC₅₀ values were calculated from the dose-response curves of the scFvs.

[2] = biological target: T1, recombinant human VEGF165; assay: SPR, BIAcore T100, hVEGF165 immobilized
Text: as §1, with “Dissociation of the anti-VEGF scFv from the VEGF on the CM4 chip was allowed to proceed for 10 min at 25° C. Sensorgrams were generated for each anti-VEGF scFv sample after in-line reference cell correction followed by buffer sample subtraction.” left out

[3] = biological target: T1, recombinant human VEGF165; assay: SPR, BIAcore T100, hVEGF165 immobilized, 1:1 fit (FIG. 7B)
Text: as §1, with “Dissociation of the anti-VEGF scFv from the VEGF on the CM4 chip was allowed to proceed for 10 min at 25° C. Sensorgrams were generated for each anti-VEGF scFv sample after in-line reference cell correction followed by buffer sample subtraction.” left out

T1 sequence (P15692 other isoform, or with tags, fused parts or gaps limits assumed): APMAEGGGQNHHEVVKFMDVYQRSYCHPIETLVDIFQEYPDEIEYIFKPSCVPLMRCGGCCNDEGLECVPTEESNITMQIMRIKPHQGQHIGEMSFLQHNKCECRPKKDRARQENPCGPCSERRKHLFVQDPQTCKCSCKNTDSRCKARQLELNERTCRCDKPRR

B2: ESBA105 (scFv)
scFv: MADIVMTQSPSSLSASVGDRVTLTCTASQSVSNDVVWYQQRPGKAPKLLIYSAFNRYTGVPSRFSGRGYGTDFTLTISSLQPEDVAVYYCQQDYNSPRTFGQGTKLEVKRGGGGSGGGGSGGGGSSGGGSQVQLVQSGAEVKKPGASVKVSCTASGYTFTHYGMNWVRQAPGKGLEWMGWINTYTGEPTYADKFKDRFTFSLETSASTVYMELTSLTSDDTAVYYCARERGDAMDYWGQGTLVTVSS
notes: Untreated scFv (VL-linker-VH), made in E. coli; also called ESBA105 Normal linker; naked ESBA105
EC50 (read off the curve) (Human TNF alpha): ~1 nM

B3: ESBA105-SS-linker (scFv)
scFv: MADIVMTQSPSSLSASVGDRVTLTCTASQSVSNDVVWYQQRPGKAPKLLIYSAFNRYTGVPSRFSGRGYGTDFTLTISSLQPEDVAVYYCQQDYNSPRTFGQGTKLEVKRGGGGSGGGGSCGGGSGGGCGGGGSGGGGSQVQLVQSGAEVKKPGASVKVSCTASGYTFTHYGMNWVRQAPGKGLEWMGWINTYTGEPTYADKFKDRFTFSLETSASTVYMELTSLTSDDTAVYYCARERGDAMDYWGQGTLVTVSS
notes: un-pegylated
EC50 (read off the curve) (Human TNF alpha): ~1 nM

The next lines start with the values.

Kd [1]: 0.0561 nM
koff [1]: 4.31e-05 s⁻¹
kon [1]: 768000 M⁻¹ s⁻¹
B1: ESBA903 (scFv)
scFv: MEIVMTQSPSTLSASVGDRVIITCQASEIIHSWLAWYQQKPGKAPKLLIYLASTLASGVPSRFSGSGSGAEFTLTISSLQPDDFATYYCQNVYLASTNGANFGQGTKLTVLGGGGGSGGGGSGGGGSGGGGSEVQLVESGGGLVQPGGSLRLSCTASGFSLTDYYYMTWVRQAPGKGLEWVGFIDPDDDPYYATWAKGRFTISRDTSKNTVYLQMNSLRAEDTAVYYCAGGDHNSGWGLDIWGQGTLVTVSS
notes: Anti-VEGF scFv; also called ESBA903 Normal linker; unmodified ESBA903

Kd [2]: 0.0444 nM
koff [3]: 5.03e-05 s⁻¹
kon [3]: 1.13e+06 M⁻¹ s⁻¹
B4: ESBA903 SS Pep1 linker (scFv)
scFv: MEIVMTQSPSTLSASVGDRVIITCQASEIIHSWLAWYQQKPGKAPKLLIYLASTLASGVPSRFSGSGSGAEFTLTISSLQPDDFATYYCQNVYLASTNGANFGQGTKLTVLGGGGGSGGGGSCGAHWQFNALTVRCGGGGSGGGGSEVQLVESGGGLVQPGGSLRLSCTASGFSLTDYYYMTWVRQAPGKGLEWVGFIDPDDDPYYATWAKGRFTISRDTSKNTVYLQMNSLRAEDTAVYYCAGGDHNSGWGLDIWGQGTLVTVSS
notes: also called ESBA903-Pep1
